# How the values were obtained:
# [1] = molecular target: T1, ΔNEG2-CFTR channel (Homo sapiens, UniProt P13569, DEL817-838); assay: Single channel recording of ΔNEG2-CFTR reconstituted in planar lipid bilayer; type: biochemical; settings: 0.44 μM NEG2 peptide, −80 mV, 2 mM ATP, no PKA
# T1 construct: made in house; host or cells: 293-EBNA HEK cells (Invitrogen), transient transfection with pCEP4(ΔNEG2); microsomal membrane vesicles
# Excerpt: Single channel measurements indicate that the ΔNEG1-CFTR channel is similar to wt-CFTR in its PKA dependence. No chloride channels are observed in the absence of PKA (FIG. 2A) and the open probability in the presence of PKA and ATP is similar to wt-CFTR. In contrast, the ΔNEG2-CFTR channel opens without PKA (FIG. 2A). The constitutive activity of the ΔNEG2-CFTR channel is unlikely to be due to the endogenous phosphorylation of the ΔNEG2-CFTR protein, since protein phosphatase 2A, which decreases activity of the wt-CFTR opened by PKA and ATP (Ma et al., 1997), has no effect on the ΔNEG2-CFTR channel (n=4).
# To test whether the NEG2 region is responsible for both stimulatory and inhibitory interactions between the R domain and other domains, synthetic NEG2, a 22 amino acid peptide, was added to the cis-intracellular side of single CFTR channels captured in the planar lipid bilayer (FIG. 3). […] After peptide addition, there are periods of intense stimulation that last 4 to 8 minutes. These stimulatory periods are followed by either a return to the basal level of activity before peptide addition, or by an almost complete inhibition of the channel, where only a flickery 3 pS conductance is observed. […]
# [2] = molecular target: T2, wt-CFTR channel (Homo sapiens, UniProt P13569); assay: Single channel recording of wt-CFTR reconstituted in planar lipid bilayer; type: biochemical
# T2 construct: made in house; host or cells: 293-EBNA HEK cells (Invitrogen), transient transfection with pCEP4(wt); microsomal membrane vesicles
# Procedure: To test whether the NEG2 region is responsible for both stimulatory and inhibitory interactions between the R domain and other domains, synthetic NEG2, a 22 amino acid peptide, was added to the cis-intracellular side of single CFTR channels captured in the planar lipid bilayer (FIG. 3). […] After peptide addition, there are periods of intense stimulation that last 4 to 8 minutes. These stimulatory periods are followed by either a return to the basal level of activity before peptide addition, or by an almost complete inhibition of the channel, where only a flickery 3 pS conductance is observed.
# In order to understand the mechanism responsible for the increase in open probability, the gating kinetics of wt-CFTR without peptide and during stimulation by synthetic NEG2 were analyzed. […] Thus, the increase in the open probability is not due to a change in the closing rate of the channel. However, the closed time distribution for the stimulated channel is clearly shifted to the left compared to the control channel (FIG. 4B). There are three components to the closed state, a fast (τc1), an intermediate (τc2) and a long (τc3) closed component. The fast closed component is probably due to closings within a burst (Carson et al., 1995). Therefore, to identify better the closed times between bursts, a delimiter of τc=40 ms was set at the nadir between the fast and intermediate closed times (illustrated by the arrow in FIG. 4B) to generate the closed-burst duration histograms. […] Thus, the interaction of NEG2 with CFTR increased the intermediate-opening rate of the channel. This increase in opening rate is similar to that observed when the phosphorylated R domain protein (amino acids 645-834) was added to CFTR-ΔR/S660A in excised, inside-out patches (Winter and Welsh, 1997). Additionally, modification of C832, which resides within NEG2, by N-ethylrnaleimide (NEM) results in irreversible stimulation of PKA-phosphorylated CFTR chloride channel activity (Cotten and Welsh, 1997), further emphasizing the importance of NEG2 in CFTR regulation.
# A human embryonic kidney cell line (293-EBNA HEK; Invitrogen) was used for transfection and expression of the CFTR proteins (Ma et al., 1997, Ma et al., 1996, Xie et al., 1995). The HEK-293 cell line contains a pCMV-EBNA vector, which constitutively expresses the Epstein-Barr virus nuclear antigen-1 (EBNA-1) gene product and increases the transfection efficiency of Epstein-Barr virus-based vectors. The cells were maintained in Dulbecco's Modified Eagle Medium with 10% FBS and 1% L-glutamine. Geneticin (G418, 250 (g/ml) was added to the cell culture medium to maintain selection of the cells containing the pCMV-EBNA vector. Lipofectamine reagent (Life Technologies, Inc) in Optimem media (serum-free) was used to transfect the HEK-293 cells with pCEP4(wt), pCEP4(ΔNEG1), or pCEP4(ΔNEG2). After 5 hours, serum was added to the media (10% final serum concentration). Twenty-four hours after transfection, the transfection media was replaced with fresh media. The cells were harvested two days after transfection and microsomal membrane vesicles were prepared for single channel measurements in the lipid bilayer reconstitution system.
# HEK-293 cells transfected with pCEP4(CFTR) were harvested and homogenized using a combination of hypotonic lysis and Dounce homogenization in the presence of protease inhibitors (Ma et al., 1997, Ma et al., 1996, Xie et al., 1995). Microsomes were collected by centrifugation of postnuclear supernatant (4500×g, 15 min) at 100,000×g for 20 min and resuspended in a buffer containing 250 mM sucrose, 10 mM HEPES, pH 7.2. The membrane vesicles were stored at −75° C. until use.
# The 22 amino acid peptide corresponding to NEG2 was custom made by Quality Controlled Biochemicals, Inc. The peptide was resuspended in water to a concentration of 1 mg/ml and pH was adjusted to a physiological range (7.2-7.4) using KOH and HCl. […]
# [3] = peptide-stimulated, 4.4 μM NEG2 peptide, −80 mV
# T2 sequence (P13569 whole entry): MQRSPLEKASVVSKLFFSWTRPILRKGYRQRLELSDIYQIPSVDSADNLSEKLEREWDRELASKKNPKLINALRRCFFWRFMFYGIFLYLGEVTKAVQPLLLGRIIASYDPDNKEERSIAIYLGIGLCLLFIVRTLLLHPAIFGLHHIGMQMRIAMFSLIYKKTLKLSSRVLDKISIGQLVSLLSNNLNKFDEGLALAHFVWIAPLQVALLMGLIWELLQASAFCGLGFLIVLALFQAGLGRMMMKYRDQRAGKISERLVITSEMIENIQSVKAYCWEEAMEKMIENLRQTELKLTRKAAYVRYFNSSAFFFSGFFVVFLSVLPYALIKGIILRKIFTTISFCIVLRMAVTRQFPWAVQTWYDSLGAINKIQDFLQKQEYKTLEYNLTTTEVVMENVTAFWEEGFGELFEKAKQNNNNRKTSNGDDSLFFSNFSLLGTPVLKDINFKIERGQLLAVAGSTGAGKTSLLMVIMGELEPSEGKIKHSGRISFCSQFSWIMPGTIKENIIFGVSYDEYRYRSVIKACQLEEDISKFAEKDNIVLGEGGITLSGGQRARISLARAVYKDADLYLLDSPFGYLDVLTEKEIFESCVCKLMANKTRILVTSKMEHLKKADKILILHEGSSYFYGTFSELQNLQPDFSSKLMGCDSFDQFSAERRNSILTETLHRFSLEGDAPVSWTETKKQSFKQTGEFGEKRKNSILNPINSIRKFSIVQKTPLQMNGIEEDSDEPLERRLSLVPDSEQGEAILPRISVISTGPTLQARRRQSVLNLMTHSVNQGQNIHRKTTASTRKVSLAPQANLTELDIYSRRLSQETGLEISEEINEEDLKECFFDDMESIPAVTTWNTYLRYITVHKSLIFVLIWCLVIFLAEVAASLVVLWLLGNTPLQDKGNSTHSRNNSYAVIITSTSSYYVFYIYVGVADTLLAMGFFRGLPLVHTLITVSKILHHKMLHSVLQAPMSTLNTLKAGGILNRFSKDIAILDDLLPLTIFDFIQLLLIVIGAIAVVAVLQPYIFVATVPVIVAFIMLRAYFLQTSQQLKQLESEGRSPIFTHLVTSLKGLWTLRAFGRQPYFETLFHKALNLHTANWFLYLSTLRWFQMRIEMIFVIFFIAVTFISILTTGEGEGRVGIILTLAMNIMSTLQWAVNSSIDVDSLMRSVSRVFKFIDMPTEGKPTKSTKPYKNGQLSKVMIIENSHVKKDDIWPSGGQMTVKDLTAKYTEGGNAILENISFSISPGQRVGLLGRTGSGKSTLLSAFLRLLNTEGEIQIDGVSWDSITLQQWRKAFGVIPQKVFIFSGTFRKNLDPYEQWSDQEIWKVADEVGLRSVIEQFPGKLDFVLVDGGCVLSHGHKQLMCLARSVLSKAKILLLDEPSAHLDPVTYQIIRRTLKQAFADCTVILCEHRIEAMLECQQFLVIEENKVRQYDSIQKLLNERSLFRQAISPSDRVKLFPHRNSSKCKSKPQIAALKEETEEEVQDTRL
# T1 sequence (P13569 with tags, fused parts or gaps DEL817-838): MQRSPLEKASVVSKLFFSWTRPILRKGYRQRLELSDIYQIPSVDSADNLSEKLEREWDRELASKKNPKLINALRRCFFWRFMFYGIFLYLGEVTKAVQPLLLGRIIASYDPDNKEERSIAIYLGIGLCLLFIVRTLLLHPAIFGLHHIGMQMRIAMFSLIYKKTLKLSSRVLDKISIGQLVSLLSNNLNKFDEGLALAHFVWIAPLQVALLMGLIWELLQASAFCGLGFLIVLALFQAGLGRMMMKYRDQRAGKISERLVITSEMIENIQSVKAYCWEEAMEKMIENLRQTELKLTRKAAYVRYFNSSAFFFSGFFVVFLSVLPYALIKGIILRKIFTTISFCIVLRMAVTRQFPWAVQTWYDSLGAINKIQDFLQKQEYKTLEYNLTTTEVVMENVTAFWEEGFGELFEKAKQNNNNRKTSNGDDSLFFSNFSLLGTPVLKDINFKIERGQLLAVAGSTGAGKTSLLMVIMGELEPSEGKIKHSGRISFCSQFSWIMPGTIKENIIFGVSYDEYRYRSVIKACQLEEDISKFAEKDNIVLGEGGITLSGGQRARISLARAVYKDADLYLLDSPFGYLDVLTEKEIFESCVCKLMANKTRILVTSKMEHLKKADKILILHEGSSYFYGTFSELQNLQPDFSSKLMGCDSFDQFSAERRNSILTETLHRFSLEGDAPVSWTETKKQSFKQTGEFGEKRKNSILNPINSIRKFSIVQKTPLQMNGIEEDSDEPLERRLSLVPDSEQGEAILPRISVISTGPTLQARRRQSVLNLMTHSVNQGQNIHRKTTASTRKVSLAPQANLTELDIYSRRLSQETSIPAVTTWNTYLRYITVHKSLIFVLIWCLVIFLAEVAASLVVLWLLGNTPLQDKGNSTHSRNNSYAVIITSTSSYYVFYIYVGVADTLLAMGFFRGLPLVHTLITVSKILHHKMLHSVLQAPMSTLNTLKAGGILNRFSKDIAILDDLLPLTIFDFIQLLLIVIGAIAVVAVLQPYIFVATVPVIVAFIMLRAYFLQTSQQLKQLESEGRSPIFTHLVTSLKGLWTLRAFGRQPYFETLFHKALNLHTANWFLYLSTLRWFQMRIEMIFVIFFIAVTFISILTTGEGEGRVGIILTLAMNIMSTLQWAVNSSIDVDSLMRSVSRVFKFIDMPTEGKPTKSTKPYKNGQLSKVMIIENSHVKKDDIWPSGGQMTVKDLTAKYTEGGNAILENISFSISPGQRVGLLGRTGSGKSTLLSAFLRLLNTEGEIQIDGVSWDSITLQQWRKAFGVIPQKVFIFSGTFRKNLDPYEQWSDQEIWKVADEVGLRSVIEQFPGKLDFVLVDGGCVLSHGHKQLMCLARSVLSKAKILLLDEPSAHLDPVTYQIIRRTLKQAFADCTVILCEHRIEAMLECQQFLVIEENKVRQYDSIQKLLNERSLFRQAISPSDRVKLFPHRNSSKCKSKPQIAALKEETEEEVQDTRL
substance,measurement,setting,value
"NEG2 peptide: Synthetic 22 amino acid peptide corresponding to NEG2, amino acids 817-838 of the CFTR R domain (GLEISEEINEEDLKECFFDDME; listed as Homo sapiens)",effect on ΔNEG2-CFTR channel activity,[1],stimulation is observed
same,change of open probability during stimulation,"[2]; peptide added to cis-intracellular side, 2 mM ATP, 50 units PKA/ml",more than doubles
same,"P2, probability of the intermediate closed component",[2]; [3],0.957
same,"P3, probability of the long closed component",[2]; [3],0.043
same,intermediate closed time τc2,"[2]; peptide-stimulated, 4.4 μM NEG2 peptide, −80 mV, closed-burst histogram, delimiter 40 ms",105 ms
same,concentration at which stimulatory response was observed,"[2]; stimulation in 6 of 7 experiments, cis-intracellular addition",≥ 0.44 µM
same,concentration at which profound inhibition was observed,"[2]; three channels, cis-intracellular addition",≥ 4.4 µM
